Reference: paper PMC6765261 (Proceedings of the National Academy of Sciences of the …, 2019)

B1: CCT6 subunit of yeast TRiC/CCT (natural protein)
chain: not shown
B2: CCT2 subunit of yeast TRiC/CCT (natural protein, Saccharomyces cerevisiae, UniProt P39076 1-527, looked up)
chain: MSVQIFGDQVTEERAENARLSAFVGAIAVGDLVKSTLGPKGMDKLLQSASSNTCMVTNDGATILKSIPLDNPAAKVLVNISKVQDDEVGDGTTSVTVLSAELLREAEKLIDQSKIHPQTIIEGYRLASAAALDALTKAAVDNSHDKTMFREDLIHIAKTTLSSKILSQDKDHFAELATNAILRLKGSTNLEHIQIIKILGGKLSDSFLDEGFILAKKFGNNQPKRIENAKILIANTTLDTDKVKIFGTKFKVDSTAKLAQLEKAEREKMKNKIAKISKFGINTFINRQLIYDYPEQLFTDLGINSIEHADFEGVERLALVTGGEVVSTFDEPSKCKLGECDVIEEIMLGEQPFLKFSGCKAGEACTIVLRGATDQTLDEAERSLHDALSVLSQTTKETRTVLGGGCAEMVMSKAVDTEAQNIDGKKSLAVEAFARALRQLPTILADNAGFDSSELVSKLRSSIYNGISTSGLDLNNGTIADMRQLGIVESYKLKRAVVSSASEAAEVLLRVDNIIRARPRTANRQHM

Target: the molecule itself
Test: cryo-EM structure

Protein	binding result
B1	binds
B2	binds
